In patent publication US9403882B2, “Sulfation of Wnt pathway proteins” (priority 2010, dated 2016):
No end group written: not given here. *: point of attachment. sulfate = O=S(=O)(O)*

T1: sclerostin-LRP binding (Homo sapiens, UniProt O75197)
T1 construct: expresses LRP5 extracellular domains 1 and 2 fused to alkaline phosphatase; made in house; host or cells: LRP5R1/2-AP from transfected 293T cells (conditioned medium)
T1 sequence (O75197 32-641 limits assumed): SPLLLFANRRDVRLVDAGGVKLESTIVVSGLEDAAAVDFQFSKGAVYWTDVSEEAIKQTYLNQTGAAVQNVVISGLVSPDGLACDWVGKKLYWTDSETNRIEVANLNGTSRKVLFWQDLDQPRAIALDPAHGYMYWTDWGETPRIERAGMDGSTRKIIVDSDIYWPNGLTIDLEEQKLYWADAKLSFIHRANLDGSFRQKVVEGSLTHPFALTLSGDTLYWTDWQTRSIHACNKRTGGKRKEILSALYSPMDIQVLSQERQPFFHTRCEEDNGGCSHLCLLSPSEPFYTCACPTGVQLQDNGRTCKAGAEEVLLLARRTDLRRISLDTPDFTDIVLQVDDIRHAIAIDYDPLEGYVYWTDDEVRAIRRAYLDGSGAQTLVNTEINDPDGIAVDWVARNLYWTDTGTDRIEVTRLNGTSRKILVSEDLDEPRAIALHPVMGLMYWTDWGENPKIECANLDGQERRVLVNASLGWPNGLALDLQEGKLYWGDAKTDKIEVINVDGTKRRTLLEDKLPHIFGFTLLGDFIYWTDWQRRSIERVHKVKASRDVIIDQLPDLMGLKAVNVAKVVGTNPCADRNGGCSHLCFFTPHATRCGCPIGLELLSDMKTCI

T2: LRP5 extracellular domains 1 and 2 fused to alkaline phosphatase (Homo sapiens, UniProt O75197)
T2 construct: expresses LRP5 extracellular domains 1 and 2 fused to alkaline phosphatase; made in house; host or cells: 293T cells, transfected; concentrated conditioned medium
T2 sequence (O75197 32-641 limits assumed): T1 sequence (O75197 32-641 limits assumed)

B1: sulfated Dkk1: Dkk1 prepared in insect cells untreated with chlorate (protein, UniProt O94907 32-266, looked up)
Dickkopf-related protein 1: TLNSVLNSNAIKNLPPPLGGAAGHPGSAVSAAPGILYPGGNKYQTIDNYQPYPCAEDEECGTDEYCASPTRGGDAGVQICLACRKRRKRCMRHAMCCPGNYCKNGICVSSDQNHFRGEIEETITESFGNDHSTLDGYSRRTTLSSKMYHTKGQEGSVCLRSSDCASGLCCARHFWSKICKPVLKEGQVCTKHRRKGSHGLEIFQRCYCGEGLSCRIQKDHHQASNSSRLHTCQRH
modifications: sulfated, insect cell-expressed
notes: Dkk1 prepared in insect cells untreated with chlorate

What was measured:
[1] = molecular target: T1, sclerostin-LRP binding; assay: Sclerostin binding to LRP in the presence of peptides; settings: 667 μM peptide concentration; FIG. 12
Procedure: Various amounts of unmodified sclerostin or the in vitro treated sclerostin from Example 1 were diluted into 80 μl of TBST buffer and added to individual wells of 96 well plates. After overnight incubation, unbound proteins were removed after which point the coated plates were blocked with 3% nonfat milk in PBS. The plates were than decanted and 0.5×LRP5R1/2AP conditioned medium was added to the plates. After 2.5 hours, the conditioned medium was removed and the 96 well plates were washed five times for three minutes with TBST. The alkaline phosphatase activity in each well was then determined using the Tropix luminescence assay kit (Invitrogen, Carlsbad, Calif.).
Sclerostin binding to LRP in the presence or absence of the sulfated or unsulfated peptides, at 667 μM peptide concentration, was tested using the binding assay essentially as described in Example 3.

[2] = tested on: Wnt induced alkaline phosphatase activity; assay: Wnt 3a induced alkaline phosphatase activity in 10T1/2 cells; assay type: cell-based; settings: 24 hours, vs untreated sclerostin, highest level of sclerostin input, FIG. 3
Procedure: Growing cultures of 10T1/2 cells were washed with PBS and trypsinized for 5 minutes. Cells were resuspended at a concentration of 6×10^5 cells/ml and 10 μl were seeded into individual wells of a Costar 96 well plate (Corning, Inc.). Wnt 3a and either the untreated sclerostin or the sclerostin from Example 1 were added and the plates were incubated at 37° C. for 24 hours. 50 μl of universal lysis buffer (from the Luciferase Reporter Gene Assay, Roche Applied Science, Indianapolis, Ind.) was added to each well at ambient temperature for 5 minutes. Detection of alkaline phosphatase was measured by the addition of 50 μl of ready-to-use CPSD with Sapphire Enhancer (Applied Biosystems) followed by an incubation at ambient temperature for 25 minutes.

[3] = molecular target: T2, LRP5 extracellular domains 1 and 2 fused to alkaline phosphatase; assay: Binding of AlkPhos-LRP5 to plate-coated sclerostin; settings: TPST-1-treated vs untreated recombinant sclerostin; FIG. 2
[4] = tested on: Wnt signaling; assay: Cell-based luciferase assay using Wnt reporter cells (Dkk1 inhibition of Wnt signaling); settings: Dkk1 from insect cells untreated (sulfated) vs chlorate treated (unsulfated); FIG. 10
Procedure: These four Dkk1 preparations were used at three concentrations in a cell-based luciferase assay using the Wnt reporter cells essentially as described in U.S. Patent Publication 2006/0198791 to determine the effect of sulfation on the ability of Dkk1 to inhibit Wnt signaling. Briefly, the cells were seeded in 96-well microtiter plates at 2×10^5 cells per well, in 50 μl assay medium. After incubation at 37° C. in a 5% CO2 atmosphere overnight, 50 μl DMEM was added to each well. Wnt3a was then added, to a final concentration of 300 ng/ml, followed by addition of either buffer, sulfated Dkk1 or unsulfated Dkk1, where Dkk1 was added to a final concentration of 0.4, 0.133 or 0.044 μg/ml. The plates were then incubated at 37° C. in a 5% CO2 atmosphere for 6 h. Luciferase substrate was then added and chemiluminescence was measured. Each treatment was performed in duplicate.

Molecule	inhibition of sclerostin-LRP binding [1]	further results
H-C-R-S-A-K-A-N-Q-A-E-L-E-N-A-Y-OH (H-HCRSAKANQAELENAY-OH) [PRN8831]	inhibition of sclerostin-LRP binding	
sclerostin treated in vitro with TPST: human sclerostin (R&D Systems) sulfated in vitro with human TPST1 and PAPS		blockage of Wnt induced alkaline phosphatase activity [2]: significantly (P=0.006) more efficient blockage of Wnt induced alkaline phosphate activity
PRN8830: sulfated P43, sequence of sclerostin amino acids 37-52 where 43 is the sulfation site (HPELGEY(sulfate)PEPPPELEC-NH2)	inhibition of sclerostin-LRP binding	
mouse versions of sclerostin: mouse sclerostin, TPST-treated compared with untreated		amount of AlkPhos-LRP5 bound to the plates [3]: essentially similar results
H-P-E-L-G-E-Y-P-E-P-P-P-E-L-E-C-NH2 (H-HPELGEYPEPPPELEC-NH2) [PRN8829]	inhibition of sclerostin-LRP binding	
B1		inhibition of Wnt activity [4]: greater inhibition of Wnt activity
